Test results reported in article PMC6506550 (Nature Communications, 2019).

B1: CR9501 IgG (antibody, V domains shown)
VH: QVQLVQSGPGLVKPSQTLALTCTVSGASINSDNYYWTWIRQRPGGGLEWIGHISYTGNTYYTPSLKSRLSMSLETSQSQFSLRLTSVTAADSAVYFCAACGAYVLISNCGWFDSWGQGTQVTVSS
VL: EIVMTQSPSSLSASIGDRVTITCQASQDISTYLNWYQQKPGQAPRLLIYGASNLETGVPSRFTGSGYGTDFSVTISSLQPEDIATYYCQQYQYLPYTFAPGTKVEIK
notes: also called CF-647-labeled CR9501 IgG
B2: CR9501 Fab (Fab, V domains shown)
VH: B1 VH
VL: B1 VL

Assays:
Test in all cases: flow cytometry on cells
[1] = molecular target: full-length wild-type RSV F on the cell surface (respiratory syncytial virus (strain not stated)) (UniProt P03420)
[2] = molecular target: T1, RSV F variant in which the cytoplasmic tail was replaced with a Foldon trimerization motif, on the cell … (Respiratory syncytial virus, strain not …, UniProt P03420, stabilised); settings: one partner purified
T1 construct: source: FreeStyle 293-F or HeLa cells, cotransfected with furin, on the cell surface; not shown: Foldon trimerization motif, C-terminal, kept

[3] = molecular target: T2, full-length RSV F with the DS-Cav1 stabilizing mutations, on the cell surface (Respiratory syncytial virus, strain not …, UniProt P03420, S155C | S290C | S190F | V207L); settings: one partner purified
T2 construct: source: FreeStyle 293-F, cotransfected with furin, on the cell surface

[4] = molecular target: T3, full-length wild-type RSV F on the cell surface (Respiratory syncytial virus, …, UniProt P03420); settings: one partner purified
T3 construct: also called full-length wild-type F; full-length RSV F; source: FreeStyle 293-F or HeLa cells, cotransfected with furin, on the cell surface

[5] = molecular target: T4, full-length RSV F with the PR-DM stabilizing mutations, on the cell surface (Respiratory syncytial virus, strain not …, UniProt P03420, N67I | S215P); settings: one partner purified
T4 construct: source: FreeStyle 293-F, cotransfected with furin, on the cell surface

Molecule	percent of CF-647-labeled CR9501 IgG binding blocked [1] [%]	binding result [2]	binding result [3]	binding result [4]	binding result [5]
motavizumab Fab	< 20	–	–	–	–
B1	–	binds	binds	binds	binds
B2	–	binds	–	–	–
